{"source": "paper PMC9646525", "about": "“Cryo-EM structure of the SEA complex” (Nature, 2022)", "proteins": {"B1": {"name": "Sea4-TAP (natural protein, UniProt P38164 1-1038, looked up)", "chain": "MGLIKKVTHWSYDNLIDYLSVNPTRDEVTHYKVDPENESDESIIKLHTVKDFGSITCLDYSESEIGMIGVGEKNGYLRIFNISGQNSSSPASHAPVGLNANNETSMTNASGGKAAQAENIVGSVSNLKDTQGYPVSETNYDIRVRAKKQRCINSLGINTNGLIAMGLDRNKHDSSLQIWDMNYHDDSHETINPMFSYCTNESIVSLKFLNDTSVLAASTKFLKEIDVRSPNPIYQHPTRLTYDIKLNPFNDWQFSTYGDDGTLAIWDRRKLSDQASLGDLNVASPLLTFEKLVGSGAASRKYMNSCFRWSCVRNNEFATLHRGDTIKRWRLGYYCDSNRDIAADDDNEMNIENLFVSSVHDTNTMYDRVATFDYIPRSNNGTSLICMRQSGTIYRMPISEVCSKAILNNRNSLLLSNFENTEIDEIRVNNEHEKSNLENVKTILKNLSFEDLDVSEDYFPSGHDEPNNEIEYSELSEEENEGSNDVLDSKRGFELFWKPEKLLEKDISVIMRTRASLGYGLDPMNTVEMIDSSKNLQNNAYIRNTWRWIAIAKASVDDGTMVSGDLDLGYEGVIGIWNGINGISNQDRYRQETILSDKQLNKEMEKIIKLRRKNRDRNSPIANAAGSPKYVQRRLCLIISGWDLSRSDYEDKYNIIMKNGHYEKAAAWAVFFGDIPKAVEILGSAKKERLRLIATAIAGYLAYKDLPGNNAWRQQCRKMSSELDDPYLRVIFAFIADNDWWDILYEPAISLRERLGVALRFLNDTDLTTFLDRTSSTVIENGELEGLILTGITPNGIDLLQSYVNKTSDVQSAALISIFGSPRYFRDQRVDEWIQTYRDMLKSWELFSMRARFDVLRSKLSRTKTGVLTADIKPRQIYIQCQNCKQNINTPRTSSPSSAVSTSAGNYKNGEAYRRNNADYKKFNTGSSEAQAADEKPRHKYCCPHCGSSFPRCAICLMPLGTSNLPFVINGTQSRDPMQTEDSQDGANRELVSRKLKLNEWFSFCLSCNHGMHAGHAEEWFDRHNVCPTPGCTCQCNK", "notes": "Sea4, S. cerevisiae, endogenous subunit of the SEAC (SEACAT, core), TAP-tagged; Captured by the TAP tag on IgG beads; the complex was released with TEV protease before SDS-PAGE and cryo-EM; Written 'Sea4-TAP'; Four copies in the SEAC; source: endogenous, yeast cells expressing Sea4-TAP; in lysate, purified on IgG-coupled Dynabeads and eluted with TEV protease"}}, "target": "the molecule itself", "test": "cryo-EM structure; endogenous SEAC purified from yeast via Sea4-TAP (IgG Dynabeads, TEV elution in 20 mM HEPES-NaOH pH 7.4, 300 mM NaCl, 2 mM DTT), on graphene-oxide-coated grids"}
{"protein": "B1", "values": [{"measurement": "stoichiometry N", "result": 4}]}
